These results are taken from publication PMC10945824 (Proceedings of the National Academy of Sciences of the …, 2024).

Like-named read-outs stand apart in the source and are kept apart here.

Series [1] concerns the molecule itself. Description: negative-stain TEM.
The series “cryo-EM structure” concerns the molecule itself. Put plainly: cryo-EM structure.
Series [2] deals with the molecule itself. Description: negative-stain TEM. This is another data set of the same source.

B1: human paraneoplastic antigen Ma2 (PNMA2), recombinant, wild type (natural protein, UniProt Q9UL42 1-364, looked up)
chain: MALALLEDWCRIMSVDEQKSLMVTGIPADFEEAEIQEVLQETLKSLGRYRLLGKIFRKQENANAVLLELLEDTDVSAIPSEVQGKGGVWKVIFKTPNQDTEFLERLNLFLEKEGQTVSGMFRALGQEGVSPATVPCISPELLAHLLGQAMAHAPQPLLPMRYRKLRVFSGSAVPAPEEESFEVWLEQATEIVKEWPVTEAEKKRWLAESLRGPALDLMHIVQADNPSISVEECLEAFKQVFGSLESRRTAQVRYLKTYQEEGEKVSAYVLRLETLLRRAVEKRAIPRRIADQVRLEQVMAGATLNQMLWCRLRELKDQGPPPSFLELMKVIREEEEEEASFENESIEEPEERDGYGRWNHEGDD
The stoichiometry N is the number of molecules, sites or subunits per partner or assembly. B1: the binding result in “negative-stain TEM [1]” is recorded as “binds”. Besides, the “stoichiometry N” value in “cryo-EM structure” came to 60.

B2: HA-tagged human PNMA2 secreted by HEK293FT cells (natural protein, UniProt Q9UL42 1-364, looked up)
chain: B1 chain
Consider B2, for which the binding result in “negative-stain TEM [2]” is “binds”.
